This is an account of results in PMC5727443.

This assay addresses hypoxia-inducible factor 2α (HIF-2α), wild type (UniProt Q99814). Nature of the assay: co-IP.
Sequence of UniProt Q99814 (Q99814 whole entry): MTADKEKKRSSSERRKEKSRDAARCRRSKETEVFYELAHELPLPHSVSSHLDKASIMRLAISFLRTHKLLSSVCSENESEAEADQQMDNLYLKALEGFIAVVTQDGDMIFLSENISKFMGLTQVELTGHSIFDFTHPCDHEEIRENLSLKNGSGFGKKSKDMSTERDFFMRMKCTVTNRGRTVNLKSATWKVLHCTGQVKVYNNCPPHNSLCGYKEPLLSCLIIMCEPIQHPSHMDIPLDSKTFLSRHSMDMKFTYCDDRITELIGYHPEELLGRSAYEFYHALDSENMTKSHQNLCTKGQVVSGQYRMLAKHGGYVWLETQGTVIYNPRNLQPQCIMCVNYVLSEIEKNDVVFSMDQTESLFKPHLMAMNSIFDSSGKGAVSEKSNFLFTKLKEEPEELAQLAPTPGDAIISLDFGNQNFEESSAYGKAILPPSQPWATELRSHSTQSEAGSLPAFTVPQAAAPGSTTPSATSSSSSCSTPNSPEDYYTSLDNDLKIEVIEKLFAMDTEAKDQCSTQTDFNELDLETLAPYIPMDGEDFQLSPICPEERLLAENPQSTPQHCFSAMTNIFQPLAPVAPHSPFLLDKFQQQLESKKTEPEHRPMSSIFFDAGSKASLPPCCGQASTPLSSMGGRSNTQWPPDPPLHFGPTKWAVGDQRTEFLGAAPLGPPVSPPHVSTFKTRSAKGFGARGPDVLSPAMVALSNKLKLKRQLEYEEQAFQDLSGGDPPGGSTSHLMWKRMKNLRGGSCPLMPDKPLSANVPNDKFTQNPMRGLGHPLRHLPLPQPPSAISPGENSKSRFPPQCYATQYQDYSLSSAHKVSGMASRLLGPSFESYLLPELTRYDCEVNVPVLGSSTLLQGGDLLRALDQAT

Take mouse Tet1 (wild type, whole) (enzyme): the PHD2 bound to HIF-2α with Tet1 co-expressed, fold of without Tet1 turned out to be 0.47 fold and the pVHL bound to HIF-2α with Tet1 over-expressed, fold of without Tet1 worked out at 0.7 fold.
